Test results taken from patent US20170037087.

Target: recombinant IL-8 (UniProt P10145)
Sequence (P10145 28-99): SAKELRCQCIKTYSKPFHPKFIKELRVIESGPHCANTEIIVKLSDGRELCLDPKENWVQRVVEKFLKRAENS

SpyCEP in cell-free GAS culture supernatants
IL-8 degradation (uncleaved IL-8 by ELISA): the IL-8 degrading activity of SpyCEP
